We go through four molecules from PMC4359366, “Lis1 regulates dynein by sterically blocking its mechanochemical cycle” (eLife, 2014).

Experiment [1] concerns the target GST-dynein_(331kDa) (S. cerevisiae). Description: SEC; 400–800 nM dynein and 475–800 nM Lis1 mixed for 10 min at 4°C; Superose 6 PC 3.2/30; 50 mM Tris–HCl pH 8.0, 150 mM potassium acetate, 2 mM magnesium acetate, 1 mM EGTA, 1 mM DTT; fractions on SDS-PAGE with SYPRO Red, bands quantified in ImageJ.
Experiment [2] concerns the target monomeric dynein motor domain, dynein_(331kDa) without tags on the linker (S. cerevisiae). The experiment is described as follows: cryo-EM structure; cryo-negative stain EM, single-particle 3D reconstruction; monomeric dynein (80–120 nM) pre-incubated for 10 min with Lis1 dimer at a 1.5-fold excess (120–180 nM); no nucleotide (apyrase 0.14 U/ml, 15 min); 2% uranyl formate.

The target of experiment [3] is T1, short linker dynein, GFP-3xHA-DYN1_(314kDa)-gs-DHA, monomeric (S. cerevisiae, UniProt P36022 1365-4092).
T1 construct: ZZ tag probably cut off by Tev; also called monomeric short linker dynein; short linker construct; not shown: GFP, N-terminal, kept; 3xHA, N-terminal, kept
T1 sequence (P36022 1365-4092): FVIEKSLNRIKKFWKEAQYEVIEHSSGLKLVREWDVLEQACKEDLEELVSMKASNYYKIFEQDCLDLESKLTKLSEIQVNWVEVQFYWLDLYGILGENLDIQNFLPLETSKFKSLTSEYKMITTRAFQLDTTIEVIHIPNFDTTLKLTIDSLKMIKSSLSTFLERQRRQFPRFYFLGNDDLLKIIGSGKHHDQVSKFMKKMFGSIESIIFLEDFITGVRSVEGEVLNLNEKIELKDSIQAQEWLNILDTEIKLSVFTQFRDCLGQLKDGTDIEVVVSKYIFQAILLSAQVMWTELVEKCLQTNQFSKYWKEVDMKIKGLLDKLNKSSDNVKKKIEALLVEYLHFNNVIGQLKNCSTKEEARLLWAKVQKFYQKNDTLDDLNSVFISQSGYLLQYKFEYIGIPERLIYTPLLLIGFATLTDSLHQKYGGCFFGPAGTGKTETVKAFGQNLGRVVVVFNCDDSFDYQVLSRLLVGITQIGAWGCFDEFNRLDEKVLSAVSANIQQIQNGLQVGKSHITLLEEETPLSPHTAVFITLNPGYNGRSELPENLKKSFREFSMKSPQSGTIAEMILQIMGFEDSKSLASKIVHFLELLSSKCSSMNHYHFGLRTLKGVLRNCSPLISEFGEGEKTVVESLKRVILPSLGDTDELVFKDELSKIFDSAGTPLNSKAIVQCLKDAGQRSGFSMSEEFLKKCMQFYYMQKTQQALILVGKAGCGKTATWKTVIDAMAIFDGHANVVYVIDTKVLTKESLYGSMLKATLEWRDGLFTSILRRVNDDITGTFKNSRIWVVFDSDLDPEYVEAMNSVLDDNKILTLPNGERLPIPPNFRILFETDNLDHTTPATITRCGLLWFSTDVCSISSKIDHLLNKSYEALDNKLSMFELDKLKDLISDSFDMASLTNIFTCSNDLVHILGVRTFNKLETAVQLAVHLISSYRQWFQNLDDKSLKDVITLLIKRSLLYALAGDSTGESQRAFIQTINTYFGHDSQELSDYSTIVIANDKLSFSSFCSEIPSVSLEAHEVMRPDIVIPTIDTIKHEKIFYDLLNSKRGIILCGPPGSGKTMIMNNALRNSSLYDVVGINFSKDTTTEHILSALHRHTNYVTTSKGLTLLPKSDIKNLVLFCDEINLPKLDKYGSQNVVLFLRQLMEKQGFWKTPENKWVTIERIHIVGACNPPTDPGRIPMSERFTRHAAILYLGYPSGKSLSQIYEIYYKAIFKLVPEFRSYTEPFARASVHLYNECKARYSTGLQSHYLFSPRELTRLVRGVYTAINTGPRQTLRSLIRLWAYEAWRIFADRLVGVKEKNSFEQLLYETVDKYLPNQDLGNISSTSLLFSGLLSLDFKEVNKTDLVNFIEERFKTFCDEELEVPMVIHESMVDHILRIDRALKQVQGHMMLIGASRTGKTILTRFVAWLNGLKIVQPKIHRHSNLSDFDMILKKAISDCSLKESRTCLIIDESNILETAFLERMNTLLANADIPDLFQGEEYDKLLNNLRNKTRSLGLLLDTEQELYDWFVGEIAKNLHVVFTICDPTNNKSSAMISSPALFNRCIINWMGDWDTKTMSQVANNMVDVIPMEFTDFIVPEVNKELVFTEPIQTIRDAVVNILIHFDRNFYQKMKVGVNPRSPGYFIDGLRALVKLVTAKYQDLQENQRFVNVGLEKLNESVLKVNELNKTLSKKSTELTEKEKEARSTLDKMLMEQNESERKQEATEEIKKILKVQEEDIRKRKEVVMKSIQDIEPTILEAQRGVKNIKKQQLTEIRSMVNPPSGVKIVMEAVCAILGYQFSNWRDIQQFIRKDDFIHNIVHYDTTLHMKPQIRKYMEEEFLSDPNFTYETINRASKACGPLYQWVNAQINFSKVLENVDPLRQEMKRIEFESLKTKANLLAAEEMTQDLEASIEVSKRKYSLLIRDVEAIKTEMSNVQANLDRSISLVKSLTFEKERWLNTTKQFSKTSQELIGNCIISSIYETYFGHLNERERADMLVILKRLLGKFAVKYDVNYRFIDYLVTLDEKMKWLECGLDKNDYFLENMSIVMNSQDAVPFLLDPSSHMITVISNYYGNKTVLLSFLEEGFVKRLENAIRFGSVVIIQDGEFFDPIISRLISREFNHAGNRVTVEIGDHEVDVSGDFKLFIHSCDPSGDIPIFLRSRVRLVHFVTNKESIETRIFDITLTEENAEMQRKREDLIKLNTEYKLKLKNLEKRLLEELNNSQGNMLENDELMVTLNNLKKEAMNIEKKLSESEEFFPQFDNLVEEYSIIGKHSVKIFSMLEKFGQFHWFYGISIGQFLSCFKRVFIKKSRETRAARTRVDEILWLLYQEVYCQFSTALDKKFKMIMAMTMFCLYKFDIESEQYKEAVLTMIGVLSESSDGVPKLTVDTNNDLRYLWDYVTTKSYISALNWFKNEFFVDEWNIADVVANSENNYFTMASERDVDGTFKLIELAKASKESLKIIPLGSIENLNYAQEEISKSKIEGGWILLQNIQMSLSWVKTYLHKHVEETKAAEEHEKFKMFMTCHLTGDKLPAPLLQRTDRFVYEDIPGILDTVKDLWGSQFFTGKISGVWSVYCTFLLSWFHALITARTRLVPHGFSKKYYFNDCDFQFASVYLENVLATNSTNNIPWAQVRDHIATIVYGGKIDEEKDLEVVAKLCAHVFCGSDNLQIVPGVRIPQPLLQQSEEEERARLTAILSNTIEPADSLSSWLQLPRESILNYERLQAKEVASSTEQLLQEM
Description: SEC; 400–800 nM dynein and 475–800 nM Lis1 mixed for 10 min at 4°C; Superose 6 PC 3.2/30; 50 mM Tris–HCl pH 8.0, 150 mM potassium acetate, 2 mM magnesium acetate, 1 mM EGTA, 1 mM DTT; fractions on SDS-PAGE with SYPRO Red, bands quantified in ImageJ. Particulars: both partners purified.

Experiment [4] addresses T2, short linker dynein DYN1_(314kDa) K3438E, R3445E, F3446D (AAA5 linker-docking mutant), monomeric (S. cerevisiae, UniProt P36022 1365-4092, K3438E | R3445E | F3446D).
T2 construct: Cytoplasmic dynein heavy chain (DYN1), S. cerevisiae, 314 kDa motor construct DYN1_(314kDa) (linker truncated at residue 1365) with the AAA5 mutations; also called short linker dynein with AAA5 mutations; GFP-3xHA-DYN1_(314kDa)^K3438E,R3445E,F3446D-gs-DHA
Described as above. As to conditions: both partners purified.

Experiment [5] has as its target T3, short linker dynein, DYN1_(314kDa), without GFP (S. cerevisiae, UniProt P36022 1365-4092).
T3 construct: ZZ tag probably cut off by Tev; also called short linker construct
The experiment is described as follows: cryo-EM structure; cryo-negative stain EM, single-particle 3D reconstruction; monomeric dynein (80–120 nM) pre-incubated for 10 min with Lis1 dimer at a 1.5-fold excess (120–180 nM); no nucleotide (apyrase 0.14 U/ml, 15 min); 2% uranyl formate. Particulars: both partners purified.

Positions count from the first letter of the chain named. In names and notes the source's numbering stands.

T3 sequence (P36022 1365-4092): as above
T2 sequence (P36022 1365-4092 K3438E/R3445E/F3446D): as the sequence (P36022 1365-4092) above, with K2074E, R2081E, F2082D counted along it

B1: Lis1^R301A (natural protein)
chain: MTNWQQQLPLTDTQKNELDKSVLRYLNWNYKQTVRHEHAQDYESVRHAIVTLSGFLLQESVDRQEFISNNDTSNESMVDIDELLLPKKWNSIVRLQKKIIELEQNTETLVSQIKDLNTQVSELAQFKPTTSNGTSAHNVLKWIPRNLPSCLINVESSVTSVKLHPNLPIVFVATDHGKLYAFDLFNYTIPLASLQSHTKAITSMDVLFTNYTNSSKKNYLVIVTASKDLQIHVFKWVSEECKFQQIRSLLGHEHIVSAVKIWQKNNDVHIASCSRDQTVKIWDFHNGWSLKTFQPHSQWVASIDVLGDYIISGSHDTTLRLTHWPSGNGLSVGTGHEFPIEKVKFIHFIEDSPEIRFRTPSTDRYKNWGMQYCVSASRDRTIKIWEIPLPTLMAHRAPIPNPTDSNFRCVLTLKGHLSWVRDISIRGQYLFSCADDKSVRCWDLNTGQCLHVWEKLHTGFVNCLDLDVDFDSNVTPRQMMVTGGLDCKSNVFMR
Take B1: in experiment [1], the GST-dynein (331kDa) share of the dynein:Lis1 band ratio in the SEC complex peak is 0.88 and the Lis1 share of the dynein:Lis1 band ratio in the SEC complex peak came out at 0.12.

B2: Lis1 (Pac1), wild type, dimer (natural protein, S. cerevisiae, UniProt P39946 1-494, looked up)
chain: B1 chain with A301R
notes: Lis1 ortholog Pac1 (PAC1), S. cerevisiae; genomic PAC1 copy with ZZ-Tev in front; A Tev site follows the ZZ tag and a TEV buffer is named for the Lis1 purification, so the ZZ tag was probably cut off; also called WT Lis1; wild-type Lis1
B2: the stoichiometry N (Lis1 propeller per dynein motor domain) in experiment [2] was determined as 1. For the same molecule, the binding result in experiment [3], in experiment [4] and in experiment [5] was “binds” each time. In addition, the GST-dynein (331kDa) share of the dynein:Lis1 band ratio in the SEC complex peak in experiment [1] was determined as 0.82. Further, the Lis1 share of the dynein:Lis1 band ratio in the SEC complex peak in experiment [1] was 0.18.

B3: Lis1^K437A (natural protein)
chain: B1 chain with A301R, K437A
Consider B3, for which, in experiment [1], the GST-dynein (331kDa) share of the dynein:Lis1 band ratio in the SEC complex peak is 0.85 and the Lis1 share of the dynein:Lis1 band ratio in the SEC complex peak was found to be 0.15.

B4: Lis1^R275A (natural protein)
chain: B1 chain with R275A, A301R
B4: in experiment [1], the GST-dynein (331kDa) share of the dynein:Lis1 band ratio in the SEC complex peak was determined as 0.85 and the Lis1 share of the dynein:Lis1 band ratio in the SEC complex peak amounted to 0.15.
